This is an account of results in article PMC6694833, “Rational Design of Zika Virus Subunit Vaccine with Enhanced Efficacy” (Journal of Virology, 2019).

For test [1], the target named is ZV-2, ZIKV EDIII-specific nonneutralizing mouse MAb. Put plainly: ELISA. Conditions: read at the highest MAb concentration plotted (about 500 ng/ml, estimated from the x axis); parent: est. 3.6; read off a plot.
Another test deals with ZV-54. Put plainly: ELISA. Conditions: read at the highest MAb concentration plotted (about 250 ng/ml, estimated from the x axis); parent: est. 3.7; read off a plot.
The target in another test is Z004. The test can be described thus: ELISA. Conditions: read at the highest MAb concentration plotted (about 2000 ng/ml, estimated from the x axis); parent: est. 3.5; read off a plot.
The target of another test is ZKA64-LALA. The test can be described thus: ELISA. The note with it: read at the highest MAb concentration plotted (about 2000 ng/ml, estimated from the x axis); parent: est. 3.4; read off a plot.
Test [2] deals with ZV-67, ZIKV EDIII-specific neutralizing MAb. Put plainly: ELISA. Conditions: read at the highest MAb concentration plotted (about 500 ng/ml, estimated from the x axis); parent: est. 3.6; read off a plot.
In test [3] the target is T1, ZIKV EDIII protein containing residues 298 to 409 (wild type) fused with a C-terminal human IgG1 Fc tag (Zika virus, strain ZikaSPH2015 (GenBank …, UniProt A0A0U3FSM8, strain)).
T1 construct: also called wild-type EDIII; WT EDIII; not shown: Fc (human IgG1), C-terminal, kept
The test can be described thus: ELISA; plates coated with wild-type or mutant ZIKV EDIII protein overnight at 4°C, blocked with 2% fat-free milk in PBST; serially diluted MAbs, then HRP-conjugated anti-mouse IgG-Fab or anti-human IgG-Fab, 1 h at 37°C; absorbance at 450 nm. Conditions: both partners purified. For orientation: ELISA stands for enzyme-linked immunosorbent assay.

“ZIKV EDIII protein containing residues 298 to 409 (wild type) fused with a C-terminal human IgG1 Fc tag M375N; E377T”: the response is 0.15 A450 in test [1]; 3.7 A450 with ZV-54; 3.5 A450 with Z004; 3.4 A450 with ZKA64-LALA; 3.6 A450 in test [2].

B1: ZV-2, ZIKV EDIII-specific nonneutralizing mouse MAb (antibody, V domains shown)
VH: QVQLQESGAELMKPGASVKLSCKTSGYTFIGYWIEWLKQRPGHGLEWVGEIFPGSGRTKYNEKFKGRATFTADTSSNMAYMQLSSLTTEDSAIYYCARYYYGSYYALDYWGQGTSVTVSS
VL: DIVMTQSPSSLSVSAGEKVTLSCKSSQSLLHSGNQKNYLAWYQQKPGQAPKLLIYGASTRESGVPDRFTGSGSGTDFTLTISSVQAEDLAVYYCQNDHSYPLTFGAGTKLELK
notes: also called MAb ZV-2; source: bought: BEI Resources
With B1, the binding result in test [3] is on record as “binds”.

B2: ZV-67, ZIKV EDIII-specific neutralizing MAb (antibody, V domains shown)
VH: QAQLQQSGTGLARPGASVKLSCKASGYTFTSYGISWVTQRAGQGLEWIGVIYPRSGNTYYNEKFRGKATLTADKSSSSAYMELRGLTAEDSAVYFCARENYGSVYWGQGTTLTVSS
VL: DIVMTQSQKFMSTSVGDRVSITCKASQNVGTAVAWYQQKPGQSPKLLIYSASNRYTGVPDRFTGSGSGTDFTLTISNMQSEDLADYFCQQFSSYPYTFGGGTKLEIK
notes: also called MAb ZV-67; human MAb ZV-67; source: bought: Absolute Antibody
For B2, the binding result in test [3] is listed as “binds”.
